This note sets out measurements from patent US20200399341A1 (Hoffmann-La Roche, published 2020).

The assay addresses T1, Recombinant human VEGF R2 (R&D Systems, #357-KD) (human, UniProt P35968 20-764).
T1 construct: Immobilized by amine coupling on a CM5 chip (approx. 9,500 RU)
Put plainly: SPR (BIAcore T200): VEGF-A-121 (10 nM, pre-incubated with COMP-anti-VEGF-Fab) injected over amine-coupled VEGF R2. The protocol: Binding was investigated by surface plasmon resonance using a BIAcore T200 instrument (GE Healthcare). All experiments were performed at 25° C. using HBS-P (10 mM HEPES, 140 mM NaCl, 0.05% PS20, pH 7.4) as running and dilution buffer. Recombinant human VEGF R2 (R&D Systems, #357-KD) was immobilized on a Series S CM5 Sensor Chip (GE Healthcare) using standard amine coupling chemistry resulting a surface density of approx. 9,500 RU. […] Subsequently the surface was regenerated by injecting 10 mM Glycine solution (pH 2.0) for 60 sec., followed by 5 mM NaOH for 60 sec. at a flow rate of 5 μl/min. Bulk refractive index differences were corrected by subtracting the response obtained from a mock surface. Blank injections were subtracted (double referencing). The derived binding signals (resonance units RU) were plotted against the antibody concentrations to calculate IC₅₀ values.
In general terms: In SPR one partner is held on a chip, and binding of the other changes the refractive index at the surface.

T1 sequence (P35968 20-764 limits assumed): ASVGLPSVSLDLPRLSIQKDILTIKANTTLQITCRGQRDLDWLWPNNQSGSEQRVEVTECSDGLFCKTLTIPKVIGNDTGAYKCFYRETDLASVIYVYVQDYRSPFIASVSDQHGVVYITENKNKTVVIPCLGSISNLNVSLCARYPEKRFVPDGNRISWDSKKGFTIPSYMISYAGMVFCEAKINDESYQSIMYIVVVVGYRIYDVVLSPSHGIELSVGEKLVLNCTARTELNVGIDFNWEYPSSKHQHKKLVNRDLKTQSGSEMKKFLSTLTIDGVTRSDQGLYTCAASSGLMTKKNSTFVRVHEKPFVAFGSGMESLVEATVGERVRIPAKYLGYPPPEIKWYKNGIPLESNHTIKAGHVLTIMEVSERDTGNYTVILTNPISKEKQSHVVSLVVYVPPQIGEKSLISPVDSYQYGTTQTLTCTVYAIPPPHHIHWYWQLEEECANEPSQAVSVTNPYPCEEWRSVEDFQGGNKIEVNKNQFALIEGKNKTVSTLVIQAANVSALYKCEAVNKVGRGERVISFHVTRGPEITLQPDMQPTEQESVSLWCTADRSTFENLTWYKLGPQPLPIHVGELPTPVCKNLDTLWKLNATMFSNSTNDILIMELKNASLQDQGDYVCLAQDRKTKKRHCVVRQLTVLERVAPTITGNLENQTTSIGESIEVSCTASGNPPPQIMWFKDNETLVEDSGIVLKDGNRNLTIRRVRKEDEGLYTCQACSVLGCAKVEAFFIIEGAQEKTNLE

B1: VEGF-A-121 (ligand, UniProt P15692-9 27-147, looked up)
chain: APMAEGGGQNHHEVVKFMDVYQRSYCHPIETLVDIFQEYPDEIEYIFKPSCVPLMRCGGCCNDEGLECVPTEESNITMQIMRIKPHQGQHIGEMSFLQHNKCECRPKKDRARQEKCDKPRR
notes: Used at 10 nM in solution, pre-incubated with the antibody molecules
Regarding B1, the binding result is given as “binds”.
